We go through five molecules from patent US20240392004A1 (IMMUNOWAKE, published 2024).

The target of assay [1] is T1, human PD-1 (human, UniProt Q15116 25-167, limits assumed).
T1 construct: also called hPD-1
Briefly: PD-L1-Fc format, calibrated on PD-L1(wt)-Fc, method not stated.

Assay [2] has as its target T2, mouse PD-1 (mouse, UniProt Q02242 25-167, limits assumed).
T2 construct: also called mPD-1
T2 sequence (looked up): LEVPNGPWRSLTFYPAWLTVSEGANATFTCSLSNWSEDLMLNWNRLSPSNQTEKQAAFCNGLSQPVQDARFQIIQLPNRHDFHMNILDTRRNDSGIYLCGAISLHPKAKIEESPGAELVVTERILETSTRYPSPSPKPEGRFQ
The description is as above.

T1 sequence (Q15116 25-167 limits assumed): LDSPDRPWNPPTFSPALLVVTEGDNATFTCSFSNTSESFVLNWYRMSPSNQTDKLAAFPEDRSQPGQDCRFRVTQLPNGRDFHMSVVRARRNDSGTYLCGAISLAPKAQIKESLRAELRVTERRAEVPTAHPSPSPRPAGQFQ

B1: PD-L1(mut7)-Fc, I54Q/E58M/R113T/M115L/S117A (Fc fusion)
chain 1: FTVTVPKDLYVVEYGSNMTIECKFPVEKQLDLAALQVYWMMEDKNIIQFVHGEEDLKVQHSSYRQRARLLKDQLSLGNAALQITDVKLQDAGVYTCLIAYGGADYKRITVKVNAPYNKINQRILVVDPVTSEHELTCQAEGYPKAEVIWTSSDHQVLSGKTTTTNSKREEKLFNVTSTLRINTTTNEIFYCTFRRLDPEENHTAELVIPELPLAHPPNERGGGGSGGGDKTHTCPPCPAPEDEGGPSVFLFPPKPKDTLMISRTPEVTCVVVDVSHEDPEVKFNWYVDGVEVHNAKTKPREEQYNSTYRVVSVLTVLHQDWLNGKEYKCKVSNKALPAPIEKTISKAKGQPREPQVYVYPPSREEMTKNQVSLTCLVKGFYPSDIAVEWESNGQPENNYKTTPPVLDEDGSFALVSKLTVDKSRWQQGNVFSCSVMHEALHNHYTQKSLSLSPGK
chain 2: FTVTVPKDLYVVEYGSNMTIECKFPVEKQLDLAALQVYWMMEDKNIIQFVHGEEDLKVQHSSYRQRARLLKDQLSLGNAALQITDVKLQDAGVYTCLIAYGGADYKRITVKVNAPYNKINQRILVVDPVTSEHELTCQAEGYPKAEVIWTSSDHQVLSGKTTTTNSKREEKLFNVTSTLRINTTTNEIFYCTFRRLDPEENHTAELVIPELPLAHPPNERGGGGSGGGDKTHTCPPCPAPEKKGGPSVFLFPPKPKDTLMISRTPEVTCVVVDVSHEDPEVKFNWYVDGVEVHNAKTKPREEQYNSTYRVVSVLTVLHQDWLNGKEYKCKVSNKALPAPIEKTISKAKGQPREPQVYVLPPSREEMTKNQVSLLCLVKGFYPSDIAVEWESNGQPENRYMTWPPVLDSDGSFFLYSKLTVDKSRWQQGNVFSCSVMHEALHNHYTQKSLSLSPGK
Regarding B1, the results for the dissociation constant (Kd) in assay [1] and in assay [2] were 98 nM and 110 nM, respectively.

B2: PD-L1(mut3)-Fc, I54Q/R113T/M115L/S117A/G119K (Fc fusion)
chain 1: FTVTVPKDLYVVEYGSNMTIECKFPVEKQLDLAALQVYWEMEDKNIIQFVHGEEDLKVQHSSYRQRARLLKDQLSLGNAALQITDVKLQDAGVYTCLIAYKGADYKRITVKVNAPYNKINQRILVVDPVTSEHELTCQAEGYPKAEVIWTSSDHQVLSGKTTTTNSKREEKLFNVTSTLRINTTTNEIFYCTFRRLDPEENHTAELVIPELPLAHPPNERDKTHTCPPCPAPEDEGGPSVFLFPPKPKDTLMISRTPEVTCVVVDVSHEDPEVKFNWYVDGVEVHNAKTKPREEQYNSTYRVVSVLTVLHQDWLNGKEYKCKVSNKALPAPIEKTISKAKGQPREPQVYVYPPSREEMTKNQVSLTCLVKGFYPSDIAVEWESNGQPENNYKTTPPVLDEDGSFALVSKLTVDKSRWQQGNVFSCSVMHEALHNHYTQKSLSLSPGK
chain 2: FTVTVPKDLYVVEYGSNMTIECKFPVEKQLDLAALQVYWEMEDKNIIQFVHGEEDLKVQHSSYRQRARLLKDQLSLGNAALQITDVKLQDAGVYTCLIAYKGADYKRITVKVNAPYNKINQRILVVDPVTSEHELTCQAEGYPKAEVIWTSSDHQVLSGKTTTTNSKREEKLFNVTSTLRINTTTNEIFYCTFRRLDPEENHTAELVIPELPLAHPPNERDKTHTCPPCPAPEKKGGPSVFLFPPKPKDTLMISRTPEVTCVVVDVSHEDPEVKFNWYVDGVEVHNAKTKPREEQYNSTYRVVSVLTVLHQDWLNGKEYKCKVSNKALPAPIEKTISKAKGQPREPQVYVLPPSREEMTKNQVSLLCLVKGFYPSDIAVEWESNGQPENRYMTWPPVLDSDGSFFLYSKLTVDKSRWQQGNVFSCSVMHEALHNHYTQKSLSLSPGK
In the case of B2, the figures for the equilibrium dissociation constant (Kd) in assay [1] and in assay [2] were 910 nM and 820 nM, respectively.

B3: PD-L1(mut5)-Fc, I54Q/E58M/R113T/S117A/G119K (Fc fusion)
chain 1: FTVTVPKDLYVVEYGSNMTIECKFPVEKQLDLAALQVYWMMEDKNIIQFVHGEEDLKVQHSSYRQRARLLKDQLSLGNAALQITDVKLQDAGVYTCMIAYKGADYKRITVKVNAPYNKINQRILVVDPVTSEHELTCQAEGYPKAEVIWTSSDHQVLSGKTTTTNSKREEKLFNVTSTLRINTTTNEIFYCTFRRLDPEENHTAELVIPELPLAHPPNERDKTHTCPPCPAPEDEGGPSVFLFPPKPKDTLMISRTPEVTCVVVDVSHEDPEVKFNWYVDGVEVHNAKTKPREEQYNSTYRVVSVLTVLHQDWLNGKEYKCKVSNKALPAPIEKTISKAKGQPREPQVYVYPPSREEMTKNQVSLTCLVKGFYPSDIAVEWESNGQPENNYKTTPPVLDEDGSFALVSKLTVDKSRWQQGNVFSCSVMHEALHNHYTQKSLSLSPGK
chain 2: FTVTVPKDLYVVEYGSNMTIECKFPVEKQLDLAALQVYWMMEDKNIIQFVHGEEDLKVQHSSYRQRARLLKDQLSLGNAALQITDVKLQDAGVYTCMIAYKGADYKRITVKVNAPYNKINQRILVVDPVTSEHELTCQAEGYPKAEVIWTSSDHQVLSGKTTTTNSKREEKLFNVTSTLRINTTTNEIFYCTFRRLDPEENHTAELVIPELPLAHPPNERDKTHTCPPCPAPEKKGGPSVFLFPPKPKDTLMISRTPEVTCVVVDVSHEDPEVKFNWYVDGVEVHNAKTKPREEQYNSTYRVVSVLTVLHQDWLNGKEYKCKVSNKALPAPIEKTISKAKGQPREPQVYVLPPSREEMTKNQVSLLCLVKGFYPSDIAVEWESNGQPENRYMTWPPVLDSDGSFFLYSKLTVDKSRWQQGNVFSCSVMHEALHNHYTQKSLSLSPGK
As to B3, the Kd (in general, the equilibrium constant for the complex coming apart) in assay [1] stood at 1200 nM; in assay [2], 1100 nM.

B4: PD-L1(mut4)-Fc, I54Q/E58M/M115L/S117A/G119K (Fc fusion)
chain 1: FTVTVPKDLYVVEYGSNMTIECKFPVEKQLDLAALQVYWMMEDKNIIQFVHGEEDLKVQHSSYRQRARLLKDQLSLGNAALQITDVKLQDAGVYRCLIAYKGADYKRITVKVNAPYNKINQRILVVDPVTSEHELTCQAEGYPKAEVIWTSSDHQVLSGKTTTTNSKREEKLFNVTSTLRINTTTNEIFYCTFRRLDPEENHTAELVIPELPLAHPPNERDKTHTCPPCPAPEDEGGPSVFLFPPKPKDTLMISRTPEVTCVVVDVSHEDPEVKFNWYVDGVEVHNAKTKPREEQYNSTYRVVSVLTVLHQDWLNGKEYKCKVSNKALPAPIEKTISKAKGQPREPQVYVYPPSREEMTKNQVSLTCLVKGFYPSDIAVEWESNGQPENNYKTTPPVLDEDGSFALVSKLTVDKSRWQQGNVFSCSVMHEALHNHYTQKSLSLSPGK
chain 2: FTVTVPKDLYVVEYGSNMTIECKFPVEKQLDLAALQVYWMMEDKNIIQFVHGEEDLKVQHSSYRQRARLLKDQLSLGNAALQITDVKLQDAGVYRCLIAYKGADYKRITVKVNAPYNKINQRILVVDPVTSEHELTCQAEGYPKAEVIWTSSDHQVLSGKTTTTNSKREEKLFNVTSTLRINTTTNEIFYCTFRRLDPEENHTAELVIPELPLAHPPNERDKTHTCPPCPAPEKKGGPSVFLFPPKPKDTLMISRTPEVTCVVVDVSHEDPEVKFNWYVDGVEVHNAKTKPREEQYNSTYRVVSVLTVLHQDWLNGKEYKCKVSNKALPAPIEKTISKAKGQPREPQVYVLPPSREEMTKNQVSLLCLVKGFYPSDIAVEWESNGQPENRYMTWPPVLDSDGSFFLYSKLTVDKSRWQQGNVFSCSVMHEALHNHYTQKSLSLSPGK
In the case of B4, the Kd was determined as 1090 nM in assay [1] and 980 nM in assay [2].

B5: PD-L1(mut6)-Fc, I54Q/E58M/R113T/M115L/G119K (Fc fusion)
chain 1: FTVTVPKDLYVVEYGSNMTIECKFPVEKQLDLAALQVYWMMEDKNIIQFVHGEEDLKVQHSSYRQRARLLKDQLSLGNAALQITDVKLQDAGVYTCLISYKGADYKRITVKVNAPYNKINQRILVVDPVTSEHELTCQAEGYPKAEVIWTSSDHQVLSGKTTTTNSKREEKLFNVTSTLRINTTTNEIFYCTFRRLDPEENHTAELVIPELPLAHPPNERDKTHTCPPCPAPEDEGGPSVFLFPPKPKDTLMISRTPEVTCVVVDVSHEDPEVKFNWYVDGVEVHNAKTKPREEQYNSTYRVVSVLTVLHQDWLNGKEYKCKVSNKALPAPIEKTISKAKGQPREPQVYVYPPSREEMTKNQVSLTCLVKGFYPSDIAVEWESNGQPENNYKTTPPVLDEDGSFALVSKLTVDKSRWQQGNVFSCSVMHEALHNHYTQKSLSLSPGK
chain 2: FTVTVPKDLYVVEYGSNMTIECKFPVEKQLDLAALQVYWMMEDKNIIQFVHGEEDLKVQHSSYRQRARLLKDQLSLGNAALQITDVKLQDAGVYTCLISYKGADYKRITVKVNAPYNKINQRILVVDPVTSEHELTCQAEGYPKAEVIWTSSDHQVLSGKTTTTNSKREEKLFNVTSTLRINTTTNEIFYCTFRRLDPEENHTAELVIPELPLAHPPNERDKTHTCPPCPAPEKKGGPSVFLFPPKPKDTLMISRTPEVTCVVVDVSHEDPEVKFNWYVDGVEVHNAKTKPREEQYNSTYRVVSVLTVLHQDWLNGKEYKCKVSNKALPAPIEKTISKAKGQPREPQVYVLPPSREEMTKNQVSLLCLVKGFYPSDIAVEWESNGQPENRYMTWPPVLDSDGSFFLYSKLTVDKSRWQQGNVFSCSVMHEALHNHYTQKSLSLSPGK
B5: the Kd is 555 nM in assay [1] and 420 nM in assay [2].
